The text below walks through data of PMC13186709.

For series [1], the target named is T1, Egalitarian (Egl);Bicaudal D (BicD) (Drosophila melanogaster;Drosophila …, UniProt Q9W1K4;P16568 1-1004;1-782, |). The series is described as follows: MST; MST: 1 nM Cy5-RNA in GF150 (25 mM HEPES pH 7.3, 150 mM KCl, 1 mM MgCl2, 0.1 mM Mg-ATP, 5 mM DTT, 10% glycerol) + 0.05% Tween-20, 15 min, room temperature; Egl-BicD conc. as 2:2 complex. The following applies: protein: recombinant;recombinant, tags: C-terminal TEV-ZZ (cleaved);, chain copies: 2;2, label: 5'-Cy5.
T1 sequence (chain, as listed by the source |, chain 1 of 2): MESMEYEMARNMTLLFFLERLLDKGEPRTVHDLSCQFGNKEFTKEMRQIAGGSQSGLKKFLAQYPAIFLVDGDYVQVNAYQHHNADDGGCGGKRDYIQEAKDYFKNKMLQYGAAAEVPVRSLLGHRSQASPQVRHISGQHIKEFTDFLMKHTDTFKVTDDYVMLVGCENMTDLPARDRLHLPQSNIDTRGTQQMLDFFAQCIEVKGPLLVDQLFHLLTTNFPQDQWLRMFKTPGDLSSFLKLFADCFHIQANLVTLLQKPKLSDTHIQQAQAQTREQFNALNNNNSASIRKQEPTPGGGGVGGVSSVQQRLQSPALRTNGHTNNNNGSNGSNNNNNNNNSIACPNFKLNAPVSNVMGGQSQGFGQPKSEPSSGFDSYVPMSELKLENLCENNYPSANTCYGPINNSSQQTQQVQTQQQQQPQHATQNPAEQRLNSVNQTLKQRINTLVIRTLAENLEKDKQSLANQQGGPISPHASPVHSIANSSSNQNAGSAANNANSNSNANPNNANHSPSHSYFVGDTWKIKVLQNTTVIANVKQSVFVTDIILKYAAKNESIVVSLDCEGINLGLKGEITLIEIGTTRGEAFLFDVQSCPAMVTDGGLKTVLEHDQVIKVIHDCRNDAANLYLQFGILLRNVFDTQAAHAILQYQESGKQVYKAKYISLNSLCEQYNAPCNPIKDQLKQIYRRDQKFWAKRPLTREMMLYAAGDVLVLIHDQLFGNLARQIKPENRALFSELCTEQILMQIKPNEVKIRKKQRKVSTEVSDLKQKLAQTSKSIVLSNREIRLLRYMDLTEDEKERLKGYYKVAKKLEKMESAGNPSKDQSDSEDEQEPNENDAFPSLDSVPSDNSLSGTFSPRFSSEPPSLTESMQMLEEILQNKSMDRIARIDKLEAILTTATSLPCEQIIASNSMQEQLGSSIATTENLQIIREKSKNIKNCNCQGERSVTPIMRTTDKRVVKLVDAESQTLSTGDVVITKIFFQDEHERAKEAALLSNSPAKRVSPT
T1 sequence (P16568 whole entry, chain 2 of 2): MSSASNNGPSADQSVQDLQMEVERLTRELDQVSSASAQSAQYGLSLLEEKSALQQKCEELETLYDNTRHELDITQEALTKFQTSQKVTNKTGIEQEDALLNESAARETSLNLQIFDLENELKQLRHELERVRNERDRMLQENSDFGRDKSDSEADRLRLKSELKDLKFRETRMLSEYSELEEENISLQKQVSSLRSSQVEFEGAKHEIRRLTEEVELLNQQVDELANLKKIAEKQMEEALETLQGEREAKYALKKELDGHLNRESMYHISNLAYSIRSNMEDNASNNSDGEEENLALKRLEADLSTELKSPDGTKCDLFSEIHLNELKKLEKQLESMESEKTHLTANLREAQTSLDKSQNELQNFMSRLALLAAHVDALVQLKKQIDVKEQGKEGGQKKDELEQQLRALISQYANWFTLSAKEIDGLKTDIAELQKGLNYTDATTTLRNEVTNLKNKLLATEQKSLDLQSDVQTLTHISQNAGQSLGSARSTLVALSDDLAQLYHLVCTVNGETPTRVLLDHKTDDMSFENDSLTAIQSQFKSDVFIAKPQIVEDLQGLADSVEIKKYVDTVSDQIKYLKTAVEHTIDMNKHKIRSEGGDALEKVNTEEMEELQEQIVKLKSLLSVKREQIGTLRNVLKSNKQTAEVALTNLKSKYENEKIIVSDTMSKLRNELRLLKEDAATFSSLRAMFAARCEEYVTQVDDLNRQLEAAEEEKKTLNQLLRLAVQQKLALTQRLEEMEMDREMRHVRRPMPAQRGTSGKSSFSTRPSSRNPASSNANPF

Series [2] concerns the target T1, Egalitarian (Egl);Bicaudal D (BicD). Kind of series: MST; prep 4; MST: 1 nM Cy5-RNA in GF150 (25 mM HEPES pH 7.3, 150 mM KCl, 1 mM MgCl2, 0.1 mM Mg-ATP, 5 mM DTT, 10% glycerol) + 0.05% Tween-20, 15 min, room temperature; Egl-BicD conc. as 2:2 complex. Particulars: protein: recombinant;recombinant; tags: C-terminal TEV-ZZ (cleaved);; chain copies: 2;2; label: 5'-Cy5; hairpin.

The target is the same in series [3]. The series is described as follows: single-molecule motility; with human dynein and pig dynactin; single RNA per motile complex; MST: 1 nM Cy5-RNA in GF150 (25 mM HEPES pH 7.3, 150 mM KCl, 1 mM MgCl2, 0.1 mM Mg-ATP, 5 mM DTT, 10% glycerol) + 0.05% Tween-20, 15 min, room temperature; Egl-BicD conc. as 2:2 complex. The following applies: protein: recombinant;recombinant; tags: C-terminal TEV-ZZ (cleaved);; chain copies: 2;2; label: Cy3- or Cy5-UTP; two hairpins.

For series [4] the target is unchanged. Kind of series: MST; two experiments, different preps; MST: 1 nM Cy5-RNA in GF150 (25 mM HEPES pH 7.3, 150 mM KCl, 1 mM MgCl2, 0.1 mM Mg-ATP, 5 mM DTT, 10% glycerol) + 0.05% Tween-20, 15 min, room temperature; Egl-BicD conc. as 2:2 complex. Particulars: protein: recombinant;recombinant; tags: C-terminal TEV-ZZ (cleaved);; chain copies: 2;2; label: 5'-Cy5; straight hairpin.

Substitutions are numbered along the chain they refer to.

B1: hSL2 (structured_RNA)
RNA: AACUUCGUUGGCUUAGUUUCCUGGCUUAUAUCCUGGAAACCCGUCGACGAGG
B1: in series [1] (hairpin with bulges), the Kd is 603 ± 79 nM.

B2: GLS (MST) (structured_RNA)
RNA: AAAGUAAUUUUCGUGCUCUCAACAAUUGUCGCCGUCACAGAUUGUUGUUCGAGCCGAAUCUUACU
With B2, the Kd in series [1] (hairpin with bulges) was determined as 39 ± 14 nM.

B3: TLS∆b (structured_RNA)
RNA: UUACACCACUUGAUUGUAUUUUUAAAUUAAUUCUUAAAAAUACAAUUAAGAUCACUCU
For the molecule B3, in series [2], the Kd amounted to 2800 ± 510 nM.

B4: TLS-KSE (structured_RNA)
RNA: GUCAAAGCUUACCUUGAUUGUAUUUUUAAAUUAAUUCUUAAAAACUACAAAUUAAGUUGCAAACAUGCGAAUCCUAAACUCGGUUCACAACUUCCCCAAUUGAACAUAUAGUGGAAUUAUUAUUAUCAAUGGGGAAUAUGCUAGC
Consider B4, for which the binding result in series [3] is listed as “binds”.

In the case of AAGGGACAAGCGCAAGGUCAUUCGCAAGAGUGGCCUUGCGCUUGUCCC (structured_RNA) [2NUE RNA], the binding result in series [4] is on record as “no binding”.

B5: TLS-2xGCED1 (structured_RNA)
RNA: UUACACCACUUGAGGGUAUUUUUAAAUUAAUUCUUAAAAACUACACCUUAAGAUCACUCU
Take B5: in series [1] (hairpin with 3'-strand bulges), the Kd turned out to be 376 ± 154 nM.

B6: TLS-CGED1/ED2 (structured_RNA)
RNA: B5 RNA with G14C, G15U, U23C, A36G, C46A, C47G
B6: the Kd in series [1] (hairpin with 3'-strand bulges) is 345 ± 34 nM.

B7: TLS-GCED2 (structured_RNA)
RNA: B5 RNA with G14U, G15U, U23G, A36C, C46A, C47A
As to B7, the Kd in series [1] (hairpin with 3'-strand bulges) came out at 425 ± 140 nM.

B8: TLS-GCED1/ED2 (structured_RNA)
RNA: B5 RNA with G15U, U23G, A36C, C46A
Regarding B8, the Kd in series [1] (hairpin with 3'-strand bulges) was 4110 ± 1540 nM.

B9: TLS-2xGCED1+GCED2 (structured_RNA)
RNA: B5 RNA with U23G, A36C
Consider B9, for which the Kd in series [1] (hairpin with 3'-strand bulges) was 1510 ± 210 nM.

B10: TLS-AUED1/ED2 (structured_RNA)
RNA: B5 RNA with G14A, G15U, U23A, A36U, C46A, C47U
With B10, the Kd in series [1] (hairpin with 3'-strand bulges) amounted to 746 ± 91 nM.

B11: bcdSLV (MST) (structured_RNA)
RNA: AAAAAUGUUUCUCUUGGGCGUAAUCUCAUACAAUGAUUACCCUUAAAGAUCGAACAUUU
As to B11, the Kd in series [1] (hairpin with bulges) was 231 ± 64 nM.

B12: KSE (structured_RNA)
RNA: AAACCCAAUUGAACAUAUAGUGGAAUUAUUAUUAUCAAUGGGGAAUAUUUAACCC
Turning to B12, the dissociation constant (Kd) in series [1] (hairpin) is 507 ± 93 nM.

B13: hSL1∆b (structured_RNA)
RNA: UGCGCGUAGACAUUUCACAUCAUUCGCCGGGAUUGGCAAAUGUUGUGAAGUGUUGCAAACAU
For B13, in series [1] (hairpin), the Kd is 204 ± 36 nM.

The term Kd denotes the concentration at which binding is half-saturated.
